From the supplement of paper PMC12764529
± gives the half width of the 95% confidence interval.

How the values were obtained:
[1] = folding stability dG unfold (combined trypsin and chymotrypsin); higher = more stable
Procedure, shortened: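 K50 was inferred by Bayesian fitting of sequencing counts obtained after protease digestion of designed mini-proteins. Unfolding free energy was derived by comparison with a sequence-predicted unfolded-state K50 and a shared folded-state K50, for each protease or both combined. The mini-proteins were under 80 residues, had no cysteine, were carried in a PA-tagged cDNA display construct, and were kept only if AlphaFold2 dimer inter-PAE exceeded 15.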

[2] = folding stability dG unfold from trypsin proteolysis; higher = more stable
Description: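 Folding stability of de novo designed mini-proteins (<80 aa, no Cys; designed by TrROS, TrMRF, ProteinMPNN and the joint model) was measured by cDNA display proteolysis with trypsin and chymotrypsin. Each protease was used at 11 concentrations in a threefold dilution series plus a no-protease condition. K50 was inferred by Bayesian fitting of sequencing counts, and dG unfold was derived against a sequence-predicted unfolded-state K50 (Tsuboyama et al. method). Sequences shown include variable-length N-terminal GS-type padding (SAGGSAGG...) inside a display construct carrying a PA tag. Rows were kept only if the AF2 dimer inter-PAE was >15, to exclude likely homo-oligomers.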

Row | Sequence | folding stability dG unfold [1] | folding stability dG unfold [2]
1 | KTIEIMIPMEQMRNNKPIPADQFLKELAQEFGGPNVKPKVEPMPDNMMKATITLPNGRKIEITDPGAIKIKS [r1_168_TrROS] | < -1 kcal/mol | -0.43 ± 0.57 kcal/mol
2 | MEEVTIEIEVKGLSEEEIKELAEKLAEELREAGYEVEITKVEVLPDGSVKVTIKVRKGMSEEELKKLLEKLS [r1_485_TrROS_Hall] |  | 3.65 ± 0.36 kcal/mol
3 | SADFKPEGPSNNALVWKNPNSGKMFMIYPSDDNIEVQEIEYDPGNNKPEPETERVPLPEDDRDDLKDLLSAG [r14_245_TrROS] | < -1 kcal/mol | -0.663 ± 0.14 kcal/mol
4 | SAGAGTVASPEEAEELVEELRAALPPEATITRDPTPEGGVRFTVRLPGEGRVLEMEFDPARDTTARRPESAG [r5_358_JUSTAS] | < -1 kcal/mol | -0.391 ± 0.083 kcal/mol
5 | SAGGEPIKIKIDSVQEQPNPDGGPYLYVKITYPDGGRQTGMFDSPEDFKSQLEGEPGFKKIEIEPIRSAGGS [r16_757_TrROS] | < -1 kcal/mol | -0.839 ± 0.52 kcal/mol
6 | SAGGGAEEEAKKIAEELEKIGGVKKVEVEVKPKPDDSVEVKVKVEFEPPKPPKPPVVELPENGELVFKSAGG [r13_957_TrMRF] | < -1 kcal/mol | -0.0749 ± 0.21 kcal/mol
7 | SAGGGKIVFTEGYLLAEFPPTDLRVARPIPPDRPELALEEVADAFIAEMEAEFGFPPPEDVRVEVLASAGGS [r8_402_TrMRF] | -0.0645 ± 0.2 kcal/mol | 0.28 ± 0.058 kcal/mol
8 | SAGGGMVERTETVTVPLSDVLAGRPPTPEAIAAARFPDTAEVTLETTEVPEDDTVTVTLTVRVPPELLSAGG [r13_862_JUSTAS] | -0.0656 ± 0.21 kcal/mol | 0.472 ± 0.069 kcal/mol
9 | SAGGKVEIYNPNGQWKEITPEDLEGLKPGTIWQMPNGPVMIEIPGNDETIPIPMDSPNDIKDAIKDALSAGG [r13_962_TrROS] | -0.183 ± 0.18 kcal/mol | 0.246 ± 0.066 kcal/mol
10 | SAGGMTIVKPSDGTPQFIEDEEAEKLVKELEEKGLLKKEKPGDITIPLPTVDPVTGKPRTTTITILPESSAG [r5_243_JUSTAS] | < -1 kcal/mol | -0.962 ± 0.14 kcal/mol
11 | SAGGMVEIDPNPRVITVTDPSSSKVTKLNLPFPPDEVEKVTVLPDGTIAVYVPATGETIEVPLSELGSAGGS [r16_410_JUSTAS] | -0.774 ± 0.33 kcal/mol | -0.136 ± 0.22 kcal/mol
12 | SAGGMVTVERGPENRVITITLPPSVPEKVDELAAKLGTDYVTTEPLPEGDLVRYTIYVPGDNPALLESAGGS [r16_479_JUSTAS] | -0.948 ± 0.41 kcal/mol | 0.0152 ± 0.12 kcal/mol
13 | SAGGMVVRTPDGSTVEITVTDPASGSPYRSTDPGGGVEAAIAAINASPAYPNATVSITRYDAGTASPASAGG [r13_914_JUSTAS] | -0.485 ± 0.16 kcal/mol | -0.286 ± 0.1 kcal/mol
14 | SAGGNWRPVERPIPIEPGMPPEEFIDEIADELPPGWRIDKPEPHPDNNYFKITVYDPNDGNQVEILFSAGGS [r16_250_TrROS] | 0.122 ± 0.25 kcal/mol | 0.363 ± 0.15 kcal/mol
15 | SAGGPKLYIMIPPELRDNFPDIEIRPVEIPDDNIEIEIKFPGKKVTFPIYIFDPDGKIVEPQTITIEPSAGG [r13_129_TrROS] | 0.226 ± 0.27 kcal/mol | 0.501 ± 0.076 kcal/mol
16 | SAGGPSAENLVEGDKVLLLIPLGDGPERRLELPLPDGRPVVVEVEPDRPGLITVTIPETGKPIVLPLSAGGS [r16_198_TrMRF] | < -1 kcal/mol | -0.489 ± 0.086 kcal/mol
17 | SAGGSAEEKAKAIKEELEKKGEVKKVTVTIEPTPENSTKVTVEIEKEPKPKPKEYKYTELPNGKKVILSAGG [r13_957_JUSTAS] | < -1 kcal/mol | -0.416 ± 0.12 kcal/mol
18 | SAGGSAEKPTATLRPVVLNYPEGPISRDPSGNVVNSPEELAKEVKEEILKKTGLPVEEIVVLVEPPSAGGSA [r15_415_JUSTAS] | < -1 kcal/mol | -0.739 ± 0.061 kcal/mol
19 | SAGGSAGGAEELAEELERALPEGEVTEVRVEVVELPEGEPEVVVTVRVKRDGKEVKELPVIRVPSAGGSAGG [r6_630_TrROS_Hall] | -0.997 ± 0.44 kcal/mol | -0.492 ± 0.16 kcal/mol
20 | SAGGSAGGAVPSYIKDIETIPETSALIVNAESEEIVKEFLEKLGLKIESKEVDEDKIILPAKIESAGGSAGG [r6_381_JUSTAS] | 0.0269 ± 0.35 kcal/mol | 0.774 ± 0.099 kcal/mol
21 | SAGGSAGGEKKYEVVEKKELTLEDIEKADEILVVGKDGKVFKSRDDVKAAAEKGEKITVYVVKKSAGGSAGG [r6_827_TrROS_Hall] | < -1 kcal/mol | 0.0471 ± 0.46 kcal/mol
22 | SAGGSAGGEPITPEEAREIADYFMEEHGAKEVEVKVDPNGGIIKIDVTHPNDGRKYEREIQIEKSAGGSAGG [r6_550_TrROS] | < -1 kcal/mol | 0.142 ± 0.13 kcal/mol
23 | SAGGSAGGMSISTEQEGGKITVTDSSPGTPIAELPPDVEKEVETPVIPPPPPLYRLFLPGTVLVSAGGSAGG [r6_40_JUSTAS] | < -1 kcal/mol | -0.94 ± 0.48 kcal/mol
24 | SAGGSAGGMTAEEVAEWIADEFMENHPNIEIKPVATEDGEVKIDIRHPNSGMTHTFKIPPGQPLSAGGSAGG [r6_446_TrROS] | < -1 kcal/mol | -0.796 ± 0.19 kcal/mol

Row | Sequence | folding stability dG unfold [1] | folding stability dG unfold [2]
25 | SAGGSAGGMVEHVVTVPPSQVEEVIEEAKPKPVVEVKVEKVPGRDEVVVTMKYEIPEEELLKKLSAGGSAGG [r6_273_JUSTAS] | < -1 kcal/mol | -0.704 ± 0.084 kcal/mol
26 | SAGGSAGGMVPITDLTVDSEEFVLPTGGVATRETITRPATGLVYEKVVFTPKPGVVEQREVALLSAGGSAGG [r6_895_JUSTAS] | < -1 kcal/mol | -0.471 ± 0.12 kcal/mol
27 | SAGGSAGGNPEDKERRYVRMPIKVTVPNPNGKKIKIPIYMPVGDPERMMPRAIKFARELAKKGLSAGGSAGG [r6_903_TrROS] | < -1 kcal/mol | -0.301 ± 0.7 kcal/mol
28 | SAGGSAGGPPDDVEPEEFTFRFGDKPIKVEILRVNPDNNNIMIKHESNGKPKTMMFPPEDLEKLSAGGSAGG [r6_421_TrROS] | -0.0461 ± 0.25 kcal/mol | -0.129 ± 0.29 kcal/mol
29 | SAGGSAGGPVTVVPVVTPADVPVLTTPGGAPARPASRPDLVRPVASTVTVTITPAPAAPTVTVLSAGGSAGG [r6_537_JUSTAS] | 0.135 ± 0.12 kcal/mol | 0.857 ± 0.038 kcal/mol
30 | SAGGSAGGPYMVMIRMPNNPQPIWFPPDEVKEALKEGDEKRIKFPGGGMEMTIRNVDDIEIMPPSAGGSAGG [r6_509_TrROS] | < -1 kcal/mol | -0.793 ± 0.58 kcal/mol
31 | SAGGSAGGSAALGDESLHRPVPVVSTSPVTTTTTLTLTPPNGVTVTESVTTTTTVYGSGAASAGGSAGGSAG [r3_380_JUSTAS] | 0.172 ± 0.13 kcal/mol | 0.553 ± 0.025 kcal/mol
32 | SAGGSAGGSADIELLGESVDPATGRSSKTFQAPGKIIVETTAPDGTKTTSVVDPNSNVTIPLSAGGSAGGSA [r18_230_JUSTAS] | < -1 kcal/mol | -0.522 ± 0.11 kcal/mol
33 | SAGGSAGGSAESIDAKVTPVALPSGPRYLIEVNNPAAPEIPKSVVEEELAKKYPKERVELLSAGGSAGGSAG [r3_226_JUSTAS] | < -1 kcal/mol | -0.516 ± 0.1 kcal/mol
34 | SAGGSAGGSAGEPIRVRIENPPGGQRKITIPTDDLQEKGITPKDIAKKLAREFGWPIEVWSAGGSAGGSAGG [r11_829_TrROS] | < -1 kcal/mol | 0.257 ± 0.3 kcal/mol
35 | SAGGSAGGSAGGDAILIEVESPEDAVEAARELAEKEFGIDPENFPINVVVDEPDGKALIASAGGSAGGSAGG [r7_387_TrMRF] | -0.404 ± 0.25 kcal/mol | 0.743 ± 0.019 kcal/mol
36 | SAGGSAGGSAGGDPVTVLSIKPEPGKLTVTTNTRADGSTTTTTVSPENPPNIKPGEPLSSAGGSAGGSAGGS [r10_834_JUSTAS] | 0.109 ± 0.18 kcal/mol | 0.552 ± 0.04 kcal/mol
37 | SAGGSAGGSAGGEVEVPKDASLVVTYPNGERKEVPVEDKVPVKGLPVYLLGPDGTLREIDSAGGSAGGSAGG [r7_54_TrMRF] | < -1 kcal/mol | 0.294 ± 0.18 kcal/mol
38 | SAGGSAGGSAGGFVEKYPDGVIVEKDPNNDSGTVKKVTTTKDPNTNKPTSKVTVTPISKLSAGGSAGGSAGG [r7_181_JUSTAS] | < -1 kcal/mol | -0.844 ± 0.2 kcal/mol
39 | SAGGSAGGSAGGGESAAPVVATTVSEEVFEEPGGTVIRRYTVTTPAATTTLSTEVLPPLLSAGGSAGGSAGG [r7_43_JUSTAS] | < -1 kcal/mol | -0.25 ± 0.17 kcal/mol
40 | SAGGSAGGSAGGGMTTVTIEVPPELSEEEVRRAAAELVAAGRPVPVTVERLPEDRVVVVTSAGGSAGGSAGG [r7_283_JUSTAS] | -0.0348 ± 0.082 kcal/mol | 0.68 ± 0.021 kcal/mol
41 | SAGGSAGGSAGGGPSVAPFEVTELLSVSYVPGPRRFVAVVRLPDPERLVVVPVEDLPPGQSAGGSAGGSAGG [r7_304_TrMRF] | < -1 kcal/mol | -0.941 ± 0.41 kcal/mol
42 | SAGGSAGGSAGGHIVIPNKRWYIQFPNGKPIGEHRFDTAEDIAKELPPNMRIVPPGDPISAGGSAGGSAGGS [r10_310_TrROS] | < -1 kcal/mol | 0.281 ± 0.32 kcal/mol
43 | SAGGSAGGSAGGHPVRVRITWPDGQQRTIPIPVDPENGQVTLEEIAKTISPEHGWKIEVFSAGGSAGGSAGG [r7_492_TrROS] | -0.638 ± 0.51 kcal/mol | -0.107 ± 0.2 kcal/mol
44 | SAGGSAGGSAGGITPEEIEKIREAPLPNGAPIKDVFVEGDYAVVLFETEPDLYLIVIPNKSAGGSAGGSAGG [r7_995_TrMRF] | -0.907 ± 0.57 kcal/mol | -0.121 ± 0.12 kcal/mol
45 | SAGGSAGGSAGGKITIVVSASSPEEAKRFVGELKALGPADIKVIVVPAPKPLPADDPRAKSAGGSAGGSAGG [r7_261_TrMRF] | < -1 kcal/mol | -0.177 ± 0.21 kcal/mol
46 | SAGGSAGGSAGGKKKVKVGNKEVEIVKEEEKEGKLIIKDKKTGKKIEISKEDLKKKKIKLSAGGSAGGSAGG [r7_391_TrROS_Hall] | < -1 kcal/mol | -0.42 ± 0.52 kcal/mol
47 | SAGGSWIPVEEIAENFPNVEVNTHPNGNIMVRFTHKRKKPNGGKKKHNMTVQLDPEDGRLQSIHPYSAGGSA [r2_104_TrROS] |  | -0.0297 ± 0.48 kcal/mol
48 | SKPGDKLEEVTIKIYNPGNGRPREITIEKHEDGWRAQVMNPPGQTKEIPPNDTLEDLLNLPPNYYIEIIPSA [r9_781_TrROS] |  | -0.271 ± 0.2 kcal/mol
